Data from article PMC9169858 (Proceedings of the National Academy of Sciences of the …, 2022).

Target: SARS-CoV-2 main protease (M^pro), pGEX4T-1 construct, GST removed by thrombin (SARS-CoV-2, Wuhan-Hu-1 (MN908947.3))
Assay: BLI
Details: both partners purified

B1: NB1D10 (VHH)
VHH: QVQLQESGGGSVQAGGSLRLSCAVSGYSYCNYDLGWFRQAPGKEREGIATIDSDGNTYYVDSVKGRFTISQDNAKNTVALQMNSLKPEDTAMYYCKVGSIASSVPEVSCPPSAPFGYWGQGTQVTVSS
B1: binds.

B2: NB2E3 (VHH)
VHH: QVQLQESGGGSVQAGGSLRLSCAVSGFIATSCALGWFRQAPGKEREGIATITTDGTTYYVDSVKGRFTISQDNAKNTVALQMNSLKPEDTAMYYCKLCCSGQYCAWGQGTQVTVSS
B2: binds.
